The source of these data is paper PMC4604771, “A novel eurythermic and thermostale lipase LipM from Pseudomonas moraviensis M9 and its application in the partial hydrolysis of algal oil” (BMC Biotechnology, 2015).

Substrate in this data set: CCCCCCCC(=O)Oc1ccc([N+](=O)[O-])cc1
The experiment in a line: p-nitrophenol release, Lineweaver-Burk plot. It is filed as biochemical, Pseudomonas moraviensis. The settings on record: 50 mM Tris-HCl, pH 8.0, 65 °C, 0.01-2 mM substrate.

B1: LipM (Pseudomonas moraviensis) (protein)
chain: MGLFDYRNADGKALYSDAIALTLYAYAPTGEPLPATAWAPVAATALGYQGKVGPQGTFFGEQDGYTSAEAEVLGKYDAAGKLIGIGIAFRGTGGLGYSDTYGDMKNNLLAAFGPSDYASHYAKNAFDHLLKAVAAFAIANGIAAQDVLISGHSLGGLGVNSVAELSASHWGGFFKDANYIAFASPTQSSTGSNVLNIGYENDPVFRALDGTTFSSGSLGKHDGAHDSTTDNIVNFTDNYASTAQNLVPFSIVNPLNWSAHSSLGYADGLNRVIDSQFYALTHKDSTIIVSNLEEASRGKTWVEDLGRSGEPHVGSTLIIGTHSSDWLKGGSGNDFLEGLGGDDRFRDDGGFNILLGGQGHNTFELQKPLQNFSFANDGDGTLYVRDAYGGISLTRDIGALVSKEAGSWWGSKEITWGVTAKGLSNGSELTQYNHSLSGDGYGNALHASADGDWLFGLGGNDSLISDKGHVTFVGGAGNDVMTALGGNNTFLFSGAFGFDAVNGYQGNDKLVFMGVEGAGQGYDYKQHASQSGDDTVLKIGDYAVTLIGVGVANLSDSSIMFA
notes: pET-22b(+) NdeI/XhoI, His tag kept (C-terminal by vector)
A word on the Km: it is the substrate concentration at which the rate is half of its maximum. One may read the kcat as the number of substrate molecules converted per active site and unit of time at saturation. For B1, the Km is 360 µM and the kcat is 35.7 s⁻¹.
